US20050118729A1 (published 2005)

Target: T1, α4β1 integrin expressed on Jurkat cells (human, UniProt P13612 34-1032; P05556 21-798)
T1 construct: whole, on cells; Cells labeled with a fluorescent dye (Cyto 82); also called receptor recognizing the CS1 peptide
Experiment: cell adhesion of labeled Jurkat cells on microarray
Protocol: Jurkat T-cells, a human leukemia line, were grown under the appropriate growing conditions. Shortly before the adherence assay, cells were washed with 5 mM EDTA in Tris-buffered saline (TBS, 10 mM Tris-HCl, pH 7.4, 150 mM NaCl) and then incubated with Cyto 82 (2 μM final concentration) for 30 min under continuous agitation. Labeled cells were washed twice with the same buffer and applied directly on the fabricated microarray slides.
The model of interaction chosen for this purpose was α4β1-CS1-interaction model. α4β1 is an integrin expressed by several types of adherent cells and can mediate cell matrix contact trough the known ligand fibronectin. […] The slides were washed extensively and the interaction was scanned by the microarray scanner (FIG. 10).

T1 sequence (P13612 34-1032, chain 1 of 2): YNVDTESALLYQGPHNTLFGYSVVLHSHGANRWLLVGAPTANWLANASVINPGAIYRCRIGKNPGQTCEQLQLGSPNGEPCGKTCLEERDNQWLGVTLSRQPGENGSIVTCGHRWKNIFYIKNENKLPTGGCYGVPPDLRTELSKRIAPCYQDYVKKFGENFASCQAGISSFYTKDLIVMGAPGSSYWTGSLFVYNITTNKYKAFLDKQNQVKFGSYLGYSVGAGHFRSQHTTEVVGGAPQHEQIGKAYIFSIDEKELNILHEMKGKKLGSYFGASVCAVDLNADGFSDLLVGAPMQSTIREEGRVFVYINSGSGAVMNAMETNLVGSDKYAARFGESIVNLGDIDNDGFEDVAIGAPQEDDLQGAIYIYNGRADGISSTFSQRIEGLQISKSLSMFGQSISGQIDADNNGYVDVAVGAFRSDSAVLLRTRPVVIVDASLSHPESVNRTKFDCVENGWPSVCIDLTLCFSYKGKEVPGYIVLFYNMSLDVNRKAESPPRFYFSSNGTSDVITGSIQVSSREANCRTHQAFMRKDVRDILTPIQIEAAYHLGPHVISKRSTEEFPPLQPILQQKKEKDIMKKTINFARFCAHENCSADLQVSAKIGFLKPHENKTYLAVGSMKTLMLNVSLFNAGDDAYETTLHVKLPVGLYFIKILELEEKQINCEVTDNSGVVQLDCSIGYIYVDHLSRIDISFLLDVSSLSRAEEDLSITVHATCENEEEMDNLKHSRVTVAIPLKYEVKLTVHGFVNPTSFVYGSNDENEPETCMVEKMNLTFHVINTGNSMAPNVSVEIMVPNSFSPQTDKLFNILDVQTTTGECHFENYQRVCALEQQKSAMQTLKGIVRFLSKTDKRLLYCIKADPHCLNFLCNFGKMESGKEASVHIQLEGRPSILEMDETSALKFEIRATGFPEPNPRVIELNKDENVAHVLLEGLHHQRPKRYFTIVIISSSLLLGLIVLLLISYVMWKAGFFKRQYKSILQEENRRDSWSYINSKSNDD
T1 sequence (P05556 21-798, chain 2 of 2): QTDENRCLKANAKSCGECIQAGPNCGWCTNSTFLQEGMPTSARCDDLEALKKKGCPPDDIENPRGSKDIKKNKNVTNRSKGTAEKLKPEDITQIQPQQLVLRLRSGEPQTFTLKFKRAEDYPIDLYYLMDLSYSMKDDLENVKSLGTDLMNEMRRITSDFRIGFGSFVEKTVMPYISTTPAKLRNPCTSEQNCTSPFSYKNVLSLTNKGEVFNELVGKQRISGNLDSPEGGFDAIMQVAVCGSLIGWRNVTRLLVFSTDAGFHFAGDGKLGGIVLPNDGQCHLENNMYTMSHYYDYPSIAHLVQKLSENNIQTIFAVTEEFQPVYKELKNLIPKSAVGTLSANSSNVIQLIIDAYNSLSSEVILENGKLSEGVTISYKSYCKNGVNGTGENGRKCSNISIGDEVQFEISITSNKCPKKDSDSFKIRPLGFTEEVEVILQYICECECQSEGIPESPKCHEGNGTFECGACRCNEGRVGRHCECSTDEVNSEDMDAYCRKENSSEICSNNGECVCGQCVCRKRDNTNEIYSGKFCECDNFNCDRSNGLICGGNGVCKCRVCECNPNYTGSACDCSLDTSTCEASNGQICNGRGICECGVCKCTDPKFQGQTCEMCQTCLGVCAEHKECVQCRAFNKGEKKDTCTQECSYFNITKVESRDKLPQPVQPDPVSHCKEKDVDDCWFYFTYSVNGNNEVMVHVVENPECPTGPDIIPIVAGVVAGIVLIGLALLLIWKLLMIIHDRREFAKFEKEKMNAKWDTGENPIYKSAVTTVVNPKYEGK

B1: recombinant protein comprising the cellulose binding region of SEQ ID NO 4 (cellulose binding recombinant protein of Example 1) (other)
chain: NATPTKGATPTNTATPTKSATATPTRPSVPTNTPTNTPANTPVSGNLKVEFYNSNPSDTTNSINPQFKVTNTGSSAIDLSKLTLRYYYTVDGQKDQTFWCDHAAIIGSNGSYNGITSNVKGTFVKMSSSTNNADTYLEISFTGGTLEPGAHVQIQGRFAKNDWSNYTQSNDYSFKSASQFVEWDQVTAYLNGVLVWGKEPGGSVVPSTQPVTTPPATTKPPATTKPPATTIPPSDDPNA
Question: Does B1 bind?
Answer: Result: no binding (tested: highest array concentration)
